According to patent US20030162228A1 (Chugai, published 2003):
Read-outs that look alike come from different tables or passages of the source. Where no end group is shown, it is not given here.

Tests used:
[1] = target: T1, TAK1 expressed from yeast 2-hybrid expression vector pBTMHu11F (Homo sapiens (Human), UniProt O43318 1-606); assay: cell-based or functional assay
T1 sequence: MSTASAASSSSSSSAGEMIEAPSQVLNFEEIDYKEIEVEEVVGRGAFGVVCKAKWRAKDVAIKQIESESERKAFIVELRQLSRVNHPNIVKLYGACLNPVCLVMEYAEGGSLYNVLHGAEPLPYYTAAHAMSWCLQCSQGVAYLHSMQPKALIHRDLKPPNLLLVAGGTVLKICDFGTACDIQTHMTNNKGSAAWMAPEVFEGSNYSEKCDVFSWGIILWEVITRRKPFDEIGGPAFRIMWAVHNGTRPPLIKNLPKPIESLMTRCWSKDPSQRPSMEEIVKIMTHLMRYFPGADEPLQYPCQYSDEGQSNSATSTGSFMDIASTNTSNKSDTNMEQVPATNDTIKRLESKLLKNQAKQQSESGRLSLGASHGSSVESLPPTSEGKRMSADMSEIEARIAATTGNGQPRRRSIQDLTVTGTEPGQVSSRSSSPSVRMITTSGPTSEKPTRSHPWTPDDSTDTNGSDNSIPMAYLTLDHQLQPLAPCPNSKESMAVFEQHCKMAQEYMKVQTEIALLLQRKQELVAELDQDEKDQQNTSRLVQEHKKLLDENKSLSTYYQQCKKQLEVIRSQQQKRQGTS

[2] = target: T2, TAB1 polypeptide of mouse kidney mesangial cell line SV40MES13 (endogenous) (mouse, UniProt Q8CF89 1-502, limits assumed); assay: cell-based or functional assay
T2 sequence (looked up): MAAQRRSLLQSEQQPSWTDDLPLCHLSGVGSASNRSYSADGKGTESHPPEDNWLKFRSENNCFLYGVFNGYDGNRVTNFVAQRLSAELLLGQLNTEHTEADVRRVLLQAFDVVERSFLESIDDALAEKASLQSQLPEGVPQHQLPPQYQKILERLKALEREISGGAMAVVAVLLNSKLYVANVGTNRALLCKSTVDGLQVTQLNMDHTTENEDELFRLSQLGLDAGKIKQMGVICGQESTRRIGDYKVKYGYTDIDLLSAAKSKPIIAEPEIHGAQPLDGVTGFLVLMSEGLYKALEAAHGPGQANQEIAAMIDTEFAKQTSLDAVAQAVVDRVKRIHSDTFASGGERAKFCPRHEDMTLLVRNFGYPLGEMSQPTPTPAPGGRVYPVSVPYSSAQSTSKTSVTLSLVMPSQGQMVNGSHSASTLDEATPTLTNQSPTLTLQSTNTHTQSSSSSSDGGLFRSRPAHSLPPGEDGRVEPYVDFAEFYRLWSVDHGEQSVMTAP

[3] = target: T3, TAB1 polypeptide of human fibroblast-derived HT-1080 cells (endogenous) (human, UniProt Q15750 1-504, limits assumed); assay: cell-based or functional assay
T3 sequence (looked up): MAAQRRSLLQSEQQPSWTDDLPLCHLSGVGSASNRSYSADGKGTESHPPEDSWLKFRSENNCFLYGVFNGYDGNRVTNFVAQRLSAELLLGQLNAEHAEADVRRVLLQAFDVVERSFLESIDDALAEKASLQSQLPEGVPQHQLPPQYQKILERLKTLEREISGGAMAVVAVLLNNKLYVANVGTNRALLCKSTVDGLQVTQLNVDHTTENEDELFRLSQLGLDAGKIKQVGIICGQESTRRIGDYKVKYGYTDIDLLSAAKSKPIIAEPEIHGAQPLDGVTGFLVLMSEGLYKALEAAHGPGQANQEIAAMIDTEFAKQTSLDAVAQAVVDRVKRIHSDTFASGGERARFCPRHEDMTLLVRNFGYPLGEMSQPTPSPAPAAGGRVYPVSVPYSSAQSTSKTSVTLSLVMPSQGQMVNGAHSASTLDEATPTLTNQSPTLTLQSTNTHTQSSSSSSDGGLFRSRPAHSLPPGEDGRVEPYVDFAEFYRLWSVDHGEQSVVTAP

[4] = target: TAB1 polypeptide of mink pulmonary epithelial cell line Mv1Lu (endogenous) (mink); assay: cell-based or functional assay
[5] = target: T1, TAK1 expressed from yeast 2-hybrid …; assay: cell-based or functional assay; remark: listed apart in the source
[6] = target: T1, TAK1 expressed from yeast 2-hybrid …; assay: cell-based or functional assay; remark: listed apart in the source
[7] = target: T4, recombinant human TAK1-6×His polypeptide (human, UniProt O43318 1-606); assay: competition ELISA on plate-immobilised TAK1-6×His; the blocked ligand is MBP-TAB1C-FLAG at a fixed amount
T4 construct: also called human TAK1-6xHis; recombinant TAK1 polypeptide
T4 sequence: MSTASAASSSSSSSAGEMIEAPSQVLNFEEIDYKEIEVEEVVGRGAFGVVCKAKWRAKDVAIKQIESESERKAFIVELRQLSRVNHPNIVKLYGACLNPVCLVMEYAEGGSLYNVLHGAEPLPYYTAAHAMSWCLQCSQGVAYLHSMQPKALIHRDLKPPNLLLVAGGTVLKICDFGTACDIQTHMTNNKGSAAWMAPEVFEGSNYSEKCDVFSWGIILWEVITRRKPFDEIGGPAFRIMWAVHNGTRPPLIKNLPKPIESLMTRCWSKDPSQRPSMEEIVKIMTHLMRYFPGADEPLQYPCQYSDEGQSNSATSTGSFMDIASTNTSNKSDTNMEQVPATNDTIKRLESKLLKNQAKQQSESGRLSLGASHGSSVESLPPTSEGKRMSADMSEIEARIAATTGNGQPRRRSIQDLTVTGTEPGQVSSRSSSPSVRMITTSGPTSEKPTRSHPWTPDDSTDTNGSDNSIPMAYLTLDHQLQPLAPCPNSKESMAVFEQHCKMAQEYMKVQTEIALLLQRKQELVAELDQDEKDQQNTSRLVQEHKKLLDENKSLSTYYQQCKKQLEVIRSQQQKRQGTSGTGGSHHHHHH
From the text: In a similar manner to that in the above 5-1 (2), the recombinant human TAK1-6×His polypeptide was immobilized and was blocked.

## PYVDFAEFYRLWSVDHGEQSVVTAP (other, not shown: large carriers, also: fusion with GAL4 transcription activation domain) [TAB1C25, fusion with the GAL4 transcription activated domain (pGAD-TAB1C25)]
[1]
  β-galactosidase activity of yeast L40 (yeast 2-hybrid), ratio based on TAB1C68: 0.28 ratio to TAB1C68

B1: TAK1-DN (expressed from pTAK1DN) (other)
chain: MELRQLSRVNHPNIVKLYGACLNPVCLVMEYAEGGSLYNVLHGAEPLPYYTAAHAMSWCLQCSQGVAYLHSMQPKALIHRDLKPPNLLLVAGGTVLKICDFGTACDIQTHMTNNKGSAAWMAPEVFEGSNYSEKCDVFSWGIILWEVITRRKPFDEIGGPAFRIMWAVHNGTRPPLIKNLPKPIESLMTRCWSKDPSQRPSMEEIVKIMTHLMRYFPGADEPLQYPCQ
[2]
  fold increase of fibronectin in the culture supernatant on TGF-β addition, MES/DN3 cells (control MES/NEO about 3.3 fold): ~2.4 fold
  fold increase of fibronectin in the culture supernatant on TGF-β addition, MES/DN6 cells (control MES/NEO about 3.3 fold): ~2.3 fold
  fold increase of fibronectin in the extracellular matrix extract on TGF-β addition, MES/DN3 cells (control MES/NEO about 3.8 fold): ~2.6 fold
  fold increase of fibronectin in the extracellular matrix extract on TGF-β addition, MES/DN6 cells (control MES/NEO about 3.8 fold): ~2.1 fold
  fold increase of type I collagen in the culture supernatant on TGF-β addition, MES/DN3 cells (control MES/NEO about 3.6 fold): ~2 fold
  fold increase of type I collagen in the culture supernatant on TGF-β addition, MES/DN6 cells (control MES/NEO about 3.6 fold): ~2 fold
  fold increase of type IV collagen in the culture supernatant on TGF-β addition, MES/DN3 cells (control MES/NEO about 2.0 fold): ~1.5 fold
  fold increase of type IV collagen in the culture supernatant on TGF-β addition, MES/DN6 cells (control MES/NEO about 2.0 fold): ~1.4 fold
[3]
  fold increase of fibronectin in the culture supernatant on TGF-β addition, HT/DN2 cells (control HT/NEO about 6.1 fold): ~2.6 fold
  fold increase of fibronectin in the culture supernatant on TGF-β addition, HT/DN14 cells (control HT/NEO about 6.1 fold): ~3 fold
  fold increase of fibronectin in the extracellular matrix extract on TGF-β addition, HT/DN2 cells (control HT/NEO about 11.4 fold): ~3.5 fold
  fold increase of fibronectin in the extracellular matrix extract on TGF-β addition, HT/DN14 cells (control HT/NEO about 11.4 fold): ~3.6 fold
[4]
  fold increase of PAI-1 in the culture supernatant on TGF-β1 addition, Mv/DN2 cells (control cells about 16-fold): ~4.3 fold

B2: TAB1C68, fusion with the GAL4 transcription activated domain (pGAD-TAB1) (other, not shown: large carriers)
chain: QSPTLTLQSTNTHTQSSSSSSDGGLFRSRPAHSLPPGEDGRVEPYVDFAEFYRLWSVDHGEQSVVTAP
[5]
  ratio of the β-galactosidase activity to that of TAB1C68 (yeast 2-hybrid): 1
[6]
  ratio of the β-galactosidase activity to that of TAB1C68 (yeast 2-hybrid): 1

## GLFRSRPAHSLPPGEDGRVEPYVDFAEFYRLWSVDHGEQSVVTAP (other, not shown: large carriers, also: fusion with GAL4 transcription activation domain) [TAB1C45, fusion with the GAL4 transcription activated domain (pGAD-TAB1C45)]
[5]
  ratio of the β-galactosidase activity to that of TAB1C68 (yeast 2-hybrid): 1.19
[6]
  ratio of the β-galactosidase activity to that of TAB1C68 (yeast 2-hybrid): 1.31

B3: recombinant human TAB1-FLAG polypeptide (other)
chain: MAAQRRSLLQSEQQPSWTDDLPLCHLSGVGSASNRSYSADGKGTESHPPEDSWLKFRSENNCFLYGVFNGYDGNRVTNFVAQRLSAELLLGQLNAEHAEADVRRVLLQAFDVVERSFLESIDDALAEKASLQSQLPEGVPQHQLPPQYQKILERLKTLEREISGGAMAVVAVLLNNKLYVANVGTNRALLCKSTVDGLQVTQLNVDHTTENEDELFRLSQLGLDAGKIKQVGIICGQESTRRIGDYKVKYGYTDIDLLSAAKSKPIIAEPEIHGAQPLDGVTGFLVLMSEGLYKALEAAHGPGQANQEIAAMIDTEFAKQTSLDAVAQAVVDRVKRIHSDTFASGGERARFCPRHEDMTLLVRNFGYPLGEMSQPTPSPAPAAGGRVYPVSVPYSSAQSTSKTSVTLSLVMPSQGQMVNGAHSASTLDEATPTLTNQSPTLTLQSTNTHTQSSSSSSDGGLFRSRPAHSLPPGEDGRVEPYVDFAEFYRLWSVDHGEQSVVTAPGTGGSDYKDDDDK
notes: Made in Sf9 cells with baculovirus and purified on anti-FLAG M2 gel
[7]
  IC50 (read off the curve): ~1 µg/well
